Test results as given in paper PMC8709873.

Biological target: myc-tagged LRRTM2 (UniProt O43300)
Test: immunostaining of cells or tissue; concentrated conditioned media with Fc proteins (~1 μg/ml) added to CHO cells expressing myc-LRRTM + GFP, on ice 30 min, washed, fixed; Fc detected with Cy3 anti-human IgG, ratio Fc MGV/LRRTM MGV, normalized to control-Fc

Sequence of UniProt O43300 (O43300 34-516): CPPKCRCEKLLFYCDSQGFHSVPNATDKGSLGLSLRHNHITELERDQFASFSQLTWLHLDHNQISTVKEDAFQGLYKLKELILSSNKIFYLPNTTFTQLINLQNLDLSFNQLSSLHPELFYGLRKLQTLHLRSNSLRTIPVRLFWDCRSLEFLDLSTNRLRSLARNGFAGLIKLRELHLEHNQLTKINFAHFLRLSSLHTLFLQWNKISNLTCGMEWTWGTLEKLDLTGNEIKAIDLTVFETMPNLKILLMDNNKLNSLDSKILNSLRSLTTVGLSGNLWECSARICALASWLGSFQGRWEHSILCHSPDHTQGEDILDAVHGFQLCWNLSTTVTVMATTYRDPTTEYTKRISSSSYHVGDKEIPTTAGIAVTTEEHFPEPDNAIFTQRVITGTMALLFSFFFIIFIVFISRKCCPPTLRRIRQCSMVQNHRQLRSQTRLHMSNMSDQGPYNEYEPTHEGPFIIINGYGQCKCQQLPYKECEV

fold increase in binding against WT: 2 fold
Substance: P469S HA-Nrxn1α-ecto-Fc (Fc fusion)
